Molecular target: par6_caeel par-6 (UniProt Q9NAN2)
Sequence (Q9NAN2 whole entry): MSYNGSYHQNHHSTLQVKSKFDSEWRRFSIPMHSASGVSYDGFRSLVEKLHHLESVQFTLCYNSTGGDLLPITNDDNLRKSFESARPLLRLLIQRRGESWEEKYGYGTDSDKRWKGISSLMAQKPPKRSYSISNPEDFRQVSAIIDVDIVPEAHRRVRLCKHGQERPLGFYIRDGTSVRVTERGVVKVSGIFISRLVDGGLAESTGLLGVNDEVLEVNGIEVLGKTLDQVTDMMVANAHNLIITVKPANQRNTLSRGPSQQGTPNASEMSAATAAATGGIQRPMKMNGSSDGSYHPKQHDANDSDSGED

Chain of Cell division control protein 42 homolog (Caenorhabditis elegans), Q05062 T17N (Q05062 whole entry T17N): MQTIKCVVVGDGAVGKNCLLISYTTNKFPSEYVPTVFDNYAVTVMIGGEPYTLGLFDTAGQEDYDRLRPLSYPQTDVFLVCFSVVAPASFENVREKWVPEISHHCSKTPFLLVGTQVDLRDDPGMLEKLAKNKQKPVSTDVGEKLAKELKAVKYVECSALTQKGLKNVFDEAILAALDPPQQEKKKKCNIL

Cell division control protein 42 homolog (Caenorhabditis elegans), Q05062 T17N
effect of a mutation on the interaction: disrupting interaction

Reference: IntAct's records for PubMed 11412997
